Data reported in patent publication US20220389118A1 (Chugai, published 2022).

Assays:
[1] = molecular target: T1, human FcγRIIb extracellular domain with C-terminal His tag (human, UniProt P31994 43-217); assay: SPR (Biacore), antibody captured, FcγR analyte
T1 construct: extracellular domain; not shown: His tag at the C terminus
T1 sequence (looked up): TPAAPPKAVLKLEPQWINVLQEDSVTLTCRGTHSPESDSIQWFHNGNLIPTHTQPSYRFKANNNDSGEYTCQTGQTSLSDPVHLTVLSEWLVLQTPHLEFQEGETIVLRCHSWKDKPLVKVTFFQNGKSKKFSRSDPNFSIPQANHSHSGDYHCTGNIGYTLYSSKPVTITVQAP

[2] = molecular target: T2, human FcγRIIa type R extracellular domain with C-terminal His tag (human, UniProt P12318 34-217); assay: SPR, Ref. Ex. 25
T2 construct: extracellular domain; also called FcγRIIaR; FcγRIIa R
T2 sequence (looked up): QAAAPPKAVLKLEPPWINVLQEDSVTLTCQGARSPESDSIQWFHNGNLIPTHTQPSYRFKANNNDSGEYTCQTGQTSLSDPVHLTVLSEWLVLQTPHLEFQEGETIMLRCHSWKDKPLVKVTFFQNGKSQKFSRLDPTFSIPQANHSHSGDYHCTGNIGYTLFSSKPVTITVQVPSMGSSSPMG

[3] = molecular target: T3, human FcγRIIIa type V extracellular domain with C-terminal His tag (human, UniProt P08637 17-208); assay: SPR, Ref. Ex. 25
T3 construct: extracellular domain; also called FcγRIIIaV; FcγRIIIa V type
T3 sequence (P08637 17-208 F176V): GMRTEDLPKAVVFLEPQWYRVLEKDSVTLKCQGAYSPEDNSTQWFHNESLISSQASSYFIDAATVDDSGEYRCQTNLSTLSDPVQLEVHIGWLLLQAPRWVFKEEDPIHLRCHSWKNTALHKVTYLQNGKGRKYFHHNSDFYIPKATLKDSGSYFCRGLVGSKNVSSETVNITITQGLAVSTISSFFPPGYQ

[4] = molecular target: T4, human FcγRIIb extracellular domain with C-terminal His tag (human, UniProt P31994 43-217); assay: SPR, Ref. Ex. 25
T4 construct: extracellular domain; for crystals expressed with kifunensine and trimmed with Endo F1; also called FcγRIIb extracellular region
T4 sequence (looked up): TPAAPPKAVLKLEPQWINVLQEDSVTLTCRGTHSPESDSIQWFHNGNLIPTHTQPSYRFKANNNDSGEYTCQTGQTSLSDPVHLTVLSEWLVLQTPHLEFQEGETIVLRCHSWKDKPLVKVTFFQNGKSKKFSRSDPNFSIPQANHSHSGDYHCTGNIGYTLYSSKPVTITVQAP

B1: IL6R-BP228/IL6R-L (antibody, human IgG1, kappa)
heavy: QVQLQESGPGLVKPSETLSLTCAVSGHSISHDHAWSWVRQPPGEGLEWIGFISYSGITNYNPSLQGRVTISRDNSKNTLYLQMNSLRAEDTAVYYCARSLARTTAMDYWGEGTLVTVSSASTKGPSVFPLAPSSKSTSGGTAALGCLVKDYFPEPVTVSWNSGALTSGVHTFPAVLQSSGLYSLSSVVTVPSSSLGTQTYICNVNHKPSNTKVDKKVEPKSCDKTHTCPPCPAPEYLGDDSVFLFPPKPKDTLMISRTPEVTCVVVDVQDEDGEVKFNWYVDGVEVHNAKTKPREEQYNSTYRVVSVLTVLHQDWLNGKEYKCKVSNDALPRPIEKTISKAKGQPREPQVYTLPPSRDELTKNQVSLTCLVKGFYPSDIAVEWESNGQPENNYKTTPPVLDSDGSFFLYSKLTVDKSRWQQGNVFSCSVMHEALHNHYTQESLSLSP
light: not shown
notes: copies: 2 + 2
- Kd [1]: 0.04 µM

B2: IL6R-BP237/IL6R-L (antibody, human IgG1, kappa)
heavy: QVQLQESGPGLVKPSETLSLTCAVSGHSISHDHAWSWVRQPPGEGLEWIGFISYSGITNYNPSLQGRVTISRDNSKNTLYLQMNSLRAEDTAVYYCARSLARTTAMDYWGEGTLVTVSSASTKGPSVFPLAPSSKSTSGGTAALGCLVKDYFPEPVTVSWNSGALTSGVHTFPAVLQSSGLYSLSSVVTVPSSSLGTQTYICNVNHKPSNTKVDKKVEPKSCDKTHTCPPCPAPDYLGDDSVFLFPPKPKDTLMISRTPEVTCVVVDVQDEDGEVKFNWYVDGVEVHNAKTKPREEQDNSTYRVVSVLTVLHQDWLNGKEYKCKVSNAALPKPIEKTISKAKGQPREPQVYTLPPSRDELTKNQVSLTCLVKGFYPSDIAVEWESNGQPENNYKTTPPVLDSDGSFFLYSKLTVDKSRWQQGNVFSCSVMHEALHNHYTQESLSLSP
light: not shown
notes: copies: 2 + 2
- Kd [1]: 0.1 µM

B3: IL6R-PD042/IL6R-L (antibody, human IgG1, kappa)
heavy: QVQLQESGPGLVKPSETLSLTCAVSGHSISHDHAWSWVRQPPGEGLEWIGFISYSGITNYNPSLQGRVTISRDNSKNTLYLQMNSLRAEDTAVYYCARSLARTTAMDYWGEGTLVTVSSASTKGPSVFPLAPSSKSTSGGTAALGCLVKDYFPEPVTVSWNSGALTSGVHTFPAVLQSSGLYSLSSVVTVPSSSLGTQTYICNVNHKPSNTKVDKKVEPKSCDKTHTCPPCPAPEWLGGDSVFLFPPKPKDTLYISRTPEVTCVVVDVSHEDPEVKFNWYVDGVEVHNAKTKPREEQYNSTYRVVSVLTVLHQDWLNGKEYKCKVSNKALPAPIEKTISKAKGQPREPQVYTLPPSRDELTKNQVSLTCLVKGFYPSDIAVEWESNGQPENNYKTTPPVLDSDGSFFLYSKLTVDKSRWQQGNVFSCSVMHEALHYHYTQKSLSLSP
light: not shown
notes: also called P238D/L234W; L234W/P238D; copies: 2 + 2
- Kd [2]: 16 µM
- Kd [3]: 37 µM
- Kd [4]: 2 µM

B4: IL6R-PD079/IL6R-L (antibody, human IgG1, kappa)
heavy: QVQLQESGPGLVKPSETLSLTCAVSGHSISHDHAWSWVRQPPGEGLEWIGFISYSGITNYNPSLQGRVTISRDNSKNTLYLQMNSLRAEDTAVYYCARSLARTTAMDYWGEGTLVTVSSASTKGPSVFPLAPSSKSTSGGTAALGCLVKDYFPEPVTVSWNSGALTSGVHTFPAVLQSSGLYSLSSVVTVPSSSLGTQTYICNVNHKPSNTKVDKKVEPKSCDKTHTCPPCPAPELLGADSVFLFPPKPKDTLYISRTPEVTCVVVDVSHEDPEVKFNWYVDGVEVHNAKTKPREEQYNSTYRVVSVLTVLHQDWLNGKEYKCKVSNKALPAPIEKTISKAKGQPREPQVYTLPPSRDELTKNQVSLTCLVKGFYPSDIAVEWESNGQPENNYKTTPPVLDSDGSFFLYSKLTVDKSRWQQGNVFSCSVMHEALHYHYTQKSLSLSP
light: not shown
notes: also called P238D/G237A; G237A/P238D; copies: 2 + 2
- Kd [2]: 32 µM
- Kd [3]: 37 µM
- Kd [4]: 3 µM

B5: IL6R-PD080/IL6R-L (antibody, human IgG1, kappa)
heavy: QVQLQESGPGLVKPSETLSLTCAVSGHSISHDHAWSWVRQPPGEGLEWIGFISYSGITNYNPSLQGRVTISRDNSKNTLYLQMNSLRAEDTAVYYCARSLARTTAMDYWGEGTLVTVSSASTKGPSVFPLAPSSKSTSGGTAALGCLVKDYFPEPVTVSWNSGALTSGVHTFPAVLQSSGLYSLSSVVTVPSSSLGTQTYICNVNHKPSNTKVDKKVEPKSCDKTHTCPPCPAPELLGDDSVFLFPPKPKDTLYISRTPEVTCVVVDVSHEDPEVKFNWYVDGVEVHNAKTKPREEQYNSTYRVVSVLTVLHQDWLNGKEYKCKVSNKALPAPIEKTISKAKGQPREPQVYTLPPSRDELTKNQVSLTCLVKGFYPSDIAVEWESNGQPENNYKTTPPVLDSDGSFFLYSKLTVDKSRWQQGNVFSCSVMHEALHYHYTQKSLSLSP
light: not shown
notes: also called P238D/G237D; G237D/P238D; copies: 2 + 2
- Kd [2]: 21 µM
- Kd [3]: 43 µM
- Kd [4]: 2 µM
